Test results from the supplement of paper PMC9112550, “Optimization of the antimicrobial peptide Bac7 by deep mutational scanning” (BMC Biology, 2022).

Tested on: Escherichia coli TOP10
Test: shrunken log2 fold change of peptide-encoding DNA abundance (4.5 h post-induction vs induction); higher = less antimicrobial activity (less host growth inhibition)
Conditions: time post-induction: 4.5 h; library: site-saturation at positions 5, 18, 19, 20
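Note: peptides expressed intracellularly from a pBAD plasmid library in pooled LB shake-flask culture, induced with 0.3% L-arabinose, DNA abundance read by NGS, three biological replicates, DESeq2 with apeglm shrinkage.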

## RRIRIRPPRLPRPRPRPELGPRP
  shrunken log2 fold change: 0.0694

## RRIRKRPPRLPRPRPRPVWAPRP
  shrunken log2 fold change: 0.316

## RRIRARPPRLPRPRPRPNIQPRP
  shrunken log2 fold change: -0.122

## RRIRVRPPRLPRPRPRPLFNPRP
  shrunken log2 fold change: -0.465

## RRIRLRPPRLPRPRPRPCNFPRP
  shrunken log2 fold change: -0.0369

## RRIRHRPPRLPRPRPRPMWNPRP
  shrunken log2 fold change: -0.0721

## RRIRVRPPRLPRPRPRPYGNPRP
  shrunken log2 fold change: -0.0775

## RRIRGRPPRLPRPRPRPCFNPRP
  shrunken log2 fold change: 0.436

## RRIRSRPPRLPRPRPRPQARPRP
  shrunken log2 fold change: 0.122

## RRIRERPPRLPRPRPRPYHTPRP
  shrunken log2 fold change: 0.0711

## RRIRARPPRLPRPRPRPMISPRP
  shrunken log2 fold change: 0.501

## RRIRSRPPRLPRPRPRPMRPPRP
  shrunken log2 fold change: 0.787

## RRIRGRPPRLPRPRPRPRYWPRP
  shrunken log2 fold change: 0.248

## RRIRPRPPRLPRPRPRPFACPRP
  shrunken log2 fold change: -0.0209

## RRIRMRPPRLPRPRPRPITVPRP
  shrunken log2 fold change: 0.0226

## RRIRPRPPRLPRPRPRPAGGPRP
  shrunken log2 fold change: 0.269

## RRIRKRPPRLPRPRPRPIVTPRP
  shrunken log2 fold change: 0.102

## RRIRCRPPRLPRPRPRPFLRPRP
  shrunken log2 fold change: -0.0477

## RRIRGRPPRLPRPRPRPASMPRP
  shrunken log2 fold change: 0.548

## RRIRDRPPRLPRPRPRPGIRPRP
  shrunken log2 fold change: -0.174

## RRIRKRPPRLPRPRPRPAKMPRP
  shrunken log2 fold change: 0.376

## RRIRDRPPRLPRPRPRPHNNPRP
  shrunken log2 fold change: -0.604

## RRIRFRPPRLPRPRPRPFELPRP
  shrunken log2 fold change: -0.0457

## RRIRCRPPRLPRPRPRPCVGPRP
  shrunken log2 fold change: -0.0691

## RRIRFRPPRLPRPRPRPATQPRP
  shrunken log2 fold change: -0.00992

## RRIRTRPPRLPRPRPRPRPFPRP
  shrunken log2 fold change: 0.114

## RRIRIRPPRLPRPRPRPSHRPRP
  shrunken log2 fold change: -0.276

## RRIRVRPPRLPRPRPRPEVDPRP
  shrunken log2 fold change: 0.296

## RRIRHRPPRLPRPRPRPSWLPRP
  shrunken log2 fold change: -0.0847

## RRIRKRPPRLPRPRPRPTYRPRP
  shrunken log2 fold change: 0.647

## RRIRERPPRLPRPRPRPQHWPRP
  shrunken log2 fold change: -0.046

## RRIRQRPPRLPRPRPRPYLAPRP
  shrunken log2 fold change: -0.21

## RRIRKRPPRLPRPRPRPRHRPRP
  shrunken log2 fold change: 0.264

## RRIRFRPPRLPRPRPRPTTEPRP
  shrunken log2 fold change: 0.108

## RRIRHRPPRLPRPRPRPNVKPRP
  shrunken log2 fold change: -0.112

## RRIRCRPPRLPRPRPRPNSCPRP
  shrunken log2 fold change: -0.394

## RRIRDRPPRLPRPRPRPGDMPRP
  shrunken log2 fold change: 0.164

## RRIRDRPPRLPRPRPRPDDEPRP
  shrunken log2 fold change: 0.425

## RRIRTRPPRLPRPRPRPHPWPRP
  shrunken log2 fold change: -0.0609

## RRIRLRPPRLPRPRPRPQFMPRP
  shrunken log2 fold change: -0.462

## RRIRFRPPRLPRPRPRPYTVPRP
  shrunken log2 fold change: -0.00354

## RRIRWRPPRLPRPRPRPYMLPRP
  shrunken log2 fold change: -0.298

## RRIRCRPPRLPRPRPRPHFSPRP
  shrunken log2 fold change: -0.473

## RRIRDRPPRLPRPRPRPAIHPRP
  shrunken log2 fold change: 0.00344

## RRIRVRPPRLPRPRPRPHSSPRP
  shrunken log2 fold change: -0.531

## RRIRWRPPRLPRPRPRPDQDPRP
  shrunken log2 fold change: -0.0971

## RRIRLRPPRLPRPRPRPWWHPRP
  shrunken log2 fold change: 0.0812

## RRIRRRPPRLPRPRPRPMPFPRP
  shrunken log2 fold change: -0.0201

## RRIRCRPPRLPRPRPRPTWTPRP
  shrunken log2 fold change: 0.362

## RRIRYRPPRLPRPRPRPMFHPRP
  shrunken log2 fold change: -1.24

## RRIRFRPPRLPRPRPRPQYQPRP
  shrunken log2 fold change: -0.118

## RRIRWRPPRLPRPRPRPWSPPRP
  shrunken log2 fold change: -0.0542

## RRIRQRPPRLPRPRPRPVHQPRP
  shrunken log2 fold change: -0.104

## RRIRGRPPRLPRPRPRPRDRPRP
  shrunken log2 fold change: 0.789

## RRIRVRPPRLPRPRPRPVTWPRP
  shrunken log2 fold change: -0.14

## RRIRKRPPRLPRPRPRPWYVPRP
  shrunken log2 fold change: -0.958

## RRIRHRPPRLPRPRPRPCQKPRP
  shrunken log2 fold change: -0.0102

## RRIRSRPPRLPRPRPRPAPYPRP
  shrunken log2 fold change: 0.265

## RRIRFRPPRLPRPRPRPLAGPRP
  shrunken log2 fold change: -0.104

## RRIRARPPRLPRPRPRPPNNPRP
  shrunken log2 fold change: 0.0107

## RRIRARPPRLPRPRPRPWINPRP
  shrunken log2 fold change: -0.218

## RRIRFRPPRLPRPRPRPSYQPRP
  shrunken log2 fold change: -0.451

## RRIRCRPPRLPRPRPRPPWDPRP
  shrunken log2 fold change: 0.526

## RRIRIRPPRLPRPRPRPLCQPRP
  shrunken log2 fold change: 0.127

## RRIRQRPPRLPRPRPRPQDVPRP
  shrunken log2 fold change: -0.0199

## RRIRQRPPRLPRPRPRPEMSPRP
  shrunken log2 fold change: 0.161

## RRIRPRPPRLPRPRPRPYSNPRP
  shrunken log2 fold change: -1.31

## RRIRIRPPRLPRPRPRPDRSPRP
  shrunken log2 fold change: -0.364

## RRIRSRPPRLPRPRPRPPIIPRP
  shrunken log2 fold change: -0.135

## RRIRIRPPRLPRPRPRPQGEPRP
  shrunken log2 fold change: -0.0606

## RRIRMRPPRLPRPRPRPFPPPRP
  shrunken log2 fold change: 0.103

## RRIRARPPRLPRPRPRPQDEPRP
  shrunken log2 fold change: 0.195

## RRIRLRPPRLPRPRPRPEQKPRP
  shrunken log2 fold change: 0.0115

## RRIRVRPPRLPRPRPRPVVRPRP
  shrunken log2 fold change: 0.129

## RRIRSRPPRLPRPRPRPADKPRP
  shrunken log2 fold change: -0.254

## RRIRHRPPRLPRPRPRPLEQPRP
  shrunken log2 fold change: -0.0138

## RRIRQRPPRLPRPRPRPKHKPRP
  shrunken log2 fold change: -0.0629

## RRIRNRPPRLPRPRPRPCILPRP
  shrunken log2 fold change: -0.119

## RRIRMRPPRLPRPRPRPAAGPRP
  shrunken log2 fold change: 1.56

## RRIRNRPPRLPRPRPRPFYNPRP
  shrunken log2 fold change: -0.484

## RRIRLRPPRLPRPRPRPGMEPRP
  shrunken log2 fold change: 0.251

## RRIRERPPRLPRPRPRPNTRPRP
  shrunken log2 fold change: -0.0785

## RRIRCRPPRLPRPRPRPFGNPRP
  shrunken log2 fold change: -0.365

## RRIRVRPPRLPRPRPRPSDWPRP
  shrunken log2 fold change: -0.102

## RRIRDRPPRLPRPRPRPRYNPRP
  shrunken log2 fold change: -0.513

## RRIRCRPPRLPRPRPRPDLKPRP
  shrunken log2 fold change: -0.257

## RRIRFRPPRLPRPRPRPEDAPRP
  shrunken log2 fold change: 0.00922

## RRIRRRPPRLPRPRPRPYHCPRP
  shrunken log2 fold change: -0.37

## RRIRFRPPRLPRPRPRPGRHPRP
  shrunken log2 fold change: 0.0867

## RRIRLRPPRLPRPRPRPSTLPRP
  shrunken log2 fold change: -0.552

## RRIRPRPPRLPRPRPRPQAPPRP
  shrunken log2 fold change: -0.0721

## RRIRERPPRLPRPRPRPVIDPRP
  shrunken log2 fold change: -0.0264

## RRIRTRPPRLPRPRPRPKELPRP
  shrunken log2 fold change: 0.16

## RRIRFRPPRLPRPRPRPSHVPRP
  shrunken log2 fold change: -0.281

## RRIRVRPPRLPRPRPRPKVQPRP
  shrunken log2 fold change: 3.74

## RRIRSRPPRLPRPRPRPLVIPRP
  shrunken log2 fold change: -0.281

## RRIRVRPPRLPRPRPRPATRPRP
  shrunken log2 fold change: 0.383

## RRIRVRPPRLPRPRPRPPWRPRP
  shrunken log2 fold change: 0.57

## RRIRSRPPRLPRPRPRPQTHPRP
  shrunken log2 fold change: 0.901

## RRIRLRPPRLPRPRPRPFQWPRP
  shrunken log2 fold change: -0.0972

## RRIRARPPRLPRPRPRPCTNPRP
  shrunken log2 fold change: 0.109

## RRIRNRPPRLPRPRPRPSLAPRP
  shrunken log2 fold change: 0.0683

## RRIRQRPPRLPRPRPRPAYFPRP
  shrunken log2 fold change: 0.191

## RRIRIRPPRLPRPRPRPQFWPRP
  shrunken log2 fold change: 0.133

## RRIRMRPPRLPRPRPRPLWTPRP
  shrunken log2 fold change: 0.261

## RRIRLRPPRLPRPRPRPERKPRP
  shrunken log2 fold change: -0.0366

## RRIRDRPPRLPRPRPRPWRQPRP
  shrunken log2 fold change: -0.114

## RRIRPRPPRLPRPRPRPDSDPRP
  shrunken log2 fold change: 0.0303

## RRIRGRPPRLPRPRPRPKDMPRP
  shrunken log2 fold change: 0.213

## RRIRFRPPRLPRPRPRPEIHPRP
  shrunken log2 fold change: -0.227

## RRIRMRPPRLPRPRPRPCKMPRP
  shrunken log2 fold change: 0.0367

## RRIRGRPPRLPRPRPRPWSEPRP
  shrunken log2 fold change: 0.127

## RRIRVRPPRLPRPRPRPEWGPRP
  shrunken log2 fold change: 2.29

## RRIRQRPPRLPRPRPRPVMFPRP
  shrunken log2 fold change: -0.0919

## RRIRLRPPRLPRPRPRPEYFPRP
  shrunken log2 fold change: -0.0957

## RRIRMRPPRLPRPRPRPWGGPRP
  shrunken log2 fold change: 0.414

## RRIRFRPPRLPRPRPRPGWPPRP
  shrunken log2 fold change: 0.489

## RRIRGRPPRLPRPRPRPNWWPRP
  shrunken log2 fold change: 3.32

## RRIRERPPRLPRPRPRPRNYPRP
  shrunken log2 fold change: -0.491

## RRIRMRPPRLPRPRPRPWWHPRP
  shrunken log2 fold change: 0.158

## RRIRLRPPRLPRPRPRPNSKPRP
  shrunken log2 fold change: -0.706

## RRIRERPPRLPRPRPRPTRWPRP
  shrunken log2 fold change: 0.353

## RRIRMRPPRLPRPRPRPIYIPRP
  shrunken log2 fold change: -0.156

## RRIRKRPPRLPRPRPRPGDVPRP
  shrunken log2 fold change: 0.278

## RRIRVRPPRLPRPRPRPLWMPRP
  shrunken log2 fold change: -0.523

## RRIRNRPPRLPRPRPRPWYTPRP
  shrunken log2 fold change: 0.0349

## RRIRHRPPRLPRPRPRPVKEPRP
  shrunken log2 fold change: -0.00992

## RRIRDRPPRLPRPRPRPLSSPRP
  shrunken log2 fold change: 0.184

## RRIRHRPPRLPRPRPRPFNLPRP
  shrunken log2 fold change: -0.189

## RRIRSRPPRLPRPRPRPAEKPRP
  shrunken log2 fold change: 0.0409

## RRIRWRPPRLPRPRPRPKNFPRP
  shrunken log2 fold change: -0.188

## RRIRTRPPRLPRPRPRPMWSPRP
  shrunken log2 fold change: -0.0629

## RRIRIRPPRLPRPRPRPPQSPRP
  shrunken log2 fold change: 0.0652

## RRIRERPPRLPRPRPRPMDEPRP
  shrunken log2 fold change: -0.153

## RRIRTRPPRLPRPRPRPYGNPRP
  shrunken log2 fold change: -0.0638

## RRIRRRPPRLPRPRPRPFVHPRP
  shrunken log2 fold change: 0.0512

## RRIRPRPPRLPRPRPRPIIEPRP
  shrunken log2 fold change: -0.138

## RRIRHRPPRLPRPRPRPGTKPRP
  shrunken log2 fold change: -0.0254

## RRIRLRPPRLPRPRPRPSWCPRP
  shrunken log2 fold change: -0.277

## RRIRCRPPRLPRPRPRPFREPRP
  shrunken log2 fold change: -0.386

## RRIRWRPPRLPRPRPRPGRCPRP
  shrunken log2 fold change: 0.897

## RRIRPRPPRLPRPRPRPYEVPRP
  shrunken log2 fold change: -0.125

## RRIRNRPPRLPRPRPRPVTIPRP
  shrunken log2 fold change: -0.463

## RRIRPRPPRLPRPRPRPQCNPRP
  shrunken log2 fold change: -0.0419

## RRIRRRPPRLPRPRPRPMVTPRP
  shrunken log2 fold change: 0.247

## RRIRARPPRLPRPRPRPVKVPRP
  shrunken log2 fold change: 0.0388

## RRIRPRPPRLPRPRPRPIDNPRP
  shrunken log2 fold change: -0.15

## RRIRERPPRLPRPRPRPYINPRP
  shrunken log2 fold change: -0.248

## RRIRYRPPRLPRPRPRPFIPPRP
  shrunken log2 fold change: -0.296

## RRIRWRPPRLPRPRPRPPMFPRP
  shrunken log2 fold change: -0.00833
